# Source: patent US9926355 (NEW YORK UNIVERSITY, dated 2018)
# T1: ligand-binding domain of human FGFR1c (D142 to R365) (human, UniProt P11362 142-365)
# T1 construct: range 142-365
# T1 sequence (looked up): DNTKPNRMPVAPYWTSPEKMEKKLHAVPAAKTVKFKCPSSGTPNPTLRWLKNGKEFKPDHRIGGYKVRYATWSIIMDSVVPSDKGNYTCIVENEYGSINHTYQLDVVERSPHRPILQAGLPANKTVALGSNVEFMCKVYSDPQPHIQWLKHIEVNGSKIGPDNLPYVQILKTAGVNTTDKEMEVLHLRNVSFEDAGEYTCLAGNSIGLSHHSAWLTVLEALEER
# B1: N-terminally hexahistidine-tagged C-terminal tail peptide of FGF23 (S180 to I251) (peptide)
# peptide: SAEDDSERDPLNVLKPRARMTPAPASCSQELPSAEDNSPMASDPLGVVRGGRVNTHAGGTGPEGCRPFAKFI
# notes: also called FGF23^C-tail; not shown: N-terminal hexahistidine tag
# B2: N-terminally hexahistidine-tagged, mature form of human FGF21 (H29 to S209) (ligand)
# chain: HPIPDSSPLLQFGGQVRQRYLYTDDAQQTEAHLEIREDGTVGGAADQSPESLLQLKALKPGVIQILGVKTSRFLCQRPDGALYGSLHFDPEACSFRELLLEDGYNVYQSEAHGLPLHLPGNKSPHRDPAPRGPARFLPLPGLPPALPEPPGILAPQPPDVGSSDPLSMVGPSQGRSPSYAS
# notes: also called native FGF21; not shown: N-terminal hexahistidine tag
# B3: N-terminally hexahistidine-tagged, mature form of human FGF23 (Y25 to I251), R176Q/R179Q (ligand)
# chain: YPNASPLLGSSWGGLIHLYTATARNSYHLQIHKNGHVDGAPHQTIYSALMIRSEDAGFVVITGVMSRRYLCMDFRGNIFGSHYFDPENCRFQHQTLENGYDVYHSPQYHFLVSLGRAKRAFLPGMNPPPYSQFLSRRNEIPLIHFNTPIPRQHTQSAEDDSERDPLNVLKPRARMTPAPASCSQELPSAEDNSPMASDPLGVVRGGRVNTHAGGTGPEGCRPFAKFI
# notes: also called native FGF23; wild-type FGF23; not shown: N-terminal hexahistidine tag
# Key:
# [1] = biological target: T1, ligand-binding domain of human FGFR1c …; experiment: SPR; FGF23 C-tail peptide immobilized, increasing concentrations of FGFR1c ligand-binding domain
# Excerpt: (§1) FIGS. 10A-10D show overlays of SPR sensorgrams illustrating binding of FGFR1c to FGF2 (FIG. 10A), FGF19 (FIG. 10B), FGF21 (FIG. 10C), and FGF23 (FIG. 10D), and fitted saturation binding curves. Increasing concentrations of FGFR1c ligand-binding domain were passed over a biosensor chip containing immobilized FGF2, FGF19, FGF21, or FGF23. […] Increasing concentrations of αKlotho-FGFR1c complex were passed over a biosensor chip containing immobilized FGF23. […] FGF2^3C-tail was immobilized on a biosensor chip and increasing concentrations of FGFR1c ligand-binding domain were passed over the chip. Dissociation constants (K_Ds) given in FIGS. 10A-10E were derived from the saturation binding curves.
# (§2) Example 2—Analysis of FGF-Heparin and FGF-FGFR-α/Klotho Interactions by Surface Plasmon Resonance Spectroscopy Surface plasmon resonance (SPR) experiments were performed on a Biacore 2000 instrument (Biacore AB), and the interactions were studied at 25° C. in HBS-EP buffer (10 mM HEPES-NaOH, pH 7.4, 150 mM NaCl, 3 mM EDTA, 0.005% (v/v) polysorbate 20). To study endocrine FGF-heparin interactions, a heparin chip was prepared by immobilizing biotinylated heparin (Sigma-Aldrich) on flow channels of a research-grade streptavidin chip (Biacore AB). The coupling density was ~5 fmol mm^-2 of flow channel. […]
# [2] = biological target: T1, ligand-binding domain of human FGFR1c …; experiment: SPR; immobilized FGF21, FGFR1c ligand-binding domain in solution
# Excerpt: as §1, §2
# [3] = biological target: T1, ligand-binding domain of human FGFR1c …; experiment: SPR; FGF23 immobilized, increasing concentrations of FGFR1c ligand-binding domain; KD only in the figure
# Excerpt: as §1, §2
binder,measurement,setting,value
B1,binding result,[1],no binding
B2,binding result,[2],binds
B3,binding result,[3],binds
